Measured values: the supplement of paper PMC10126150
± gives the standard deviation of the averaged measurements.

Test system: ATP
Assay: switch fluorescence ratio, 500 uM ATP over buffer (Cy3 cluster intensity, sum of 5 cycles each) (fold (ratio)); higher = stronger signal-on switching upon ATP binding; sequences stand for … in TCGTCGGCAGCGTCAGATGTGTATAAGAGACAGTTTTTTTTTTTTTTTTTTTTTTTTT…TC
Details: aptamer strand: ATP DNA aptamer (quencher-CACCTGGGGGAGTATTGCGGAGGAAGG + anchor), 100 nM annealed; ATP concentration: 500 uM
In short: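 Clusters with intensities outside 100-1000 RFU were excluded. The remaining Cy3-labelled switching-strand clusters on a modified Illumina MiSeq flow-cell had been annealed to 100 nM quencher-labelled ATP aptamer and imaged in selection buffer, then after 15 min with 500 uM ATP at 22 °C, for five cycles separated by NaOH stripping and re-annealing. The fluorescence ratio, averaged per switch-domain sequence, is each cluster's summed target-cycle Cy3 intensity over its summed buffer-cycle Cy3 intensity.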
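Note: ATP exposure 15 min at 22 °C before imaging.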

Sequence | switch fluorescence ratio
TGAATTGGTG | 1.031 ± 0.0055
TGGGAGGGAA | 0.995 ± 0.013
TTTTCGGATG | 1.02 ± 0.028
TTTGCCTCCG | 2.15 ± 1.7
GCGGACAGTT | 0.9675 ± 0.0086
AGGTTGAACG | 0.985 ± 0.046
GGGGGATACG | 0.997 ± 0.033
GATCTTAACA | 1.003 ± 0.0089
ATTTTAAGTC | 0.987 ± 0.041
AGTTGGTAAT | 0.963 ± 0.06
TAGGACCAGC | 0.98 ± 0.012
GATTAAGCGT | 0.984 ± 0.042
GGGTTATGGT | 0.998 ± 0.028
TGGGTTGTTT | 0.986 ± 0.031
AGCGCAGTTT | 0.999 ± 0.021
GGTACGTCGG | 0.979 ± 0.048
AAGGCTTCGG | 0.998 ± 0.032
GTGGTGGTTG | 1.01 ± 0.028
TGTTTGTTAC | 1.011 ± 0.0076
GAGGTCTGTG | 0.965 ± 0.018
GGGATAGTGC | 1.01 ± 0.021
ACGTATCGGC | 1.056 ± 0.0075
TTCAAAATAG | 1.12 ± 0.15

Sequence | switch fluorescence ratio
TAATTTGTCA | 1.008 ± 0.0076
AATATATACT | 1.04 ± 0.027
AGAGTGGTAG | 0.99 ± 0.013
TGTGTTAATA | 0.966 ± 0.013
TGGGCGATAG | 1.02 ± 0.027
CCATTGTAGT | 0.99 ± 0.013
TTTAATTTTC | 1.05 ± 0.14
TACTTAGTGC | 1.02 ± 0.045
GTTTCATGAA | 1.01 ± 0.018
GTGAGCCGGT | 0.983 ± 0.013
ATATTAGGGA | 1 ± 0.0079
TGGCCGGGTT | 1.33 ± 0.4
CGGTCGGGAA | 1.005 ± 0.01
TTATTGTGGA | 0.9885 ± 0.0023
AGGGTTCTTT | 1 ± 0.029
ATGGATCGAT | 0.967 ± 0.037
AAATATTGTG | 0.982 ± 0.023
TAGACGCTCA | 1.105 ± 0.0057
ATTGAGGGAG | 1 ± 0.024
AATCTAGTGT | 0.996 ± 0.019
TTAGTTTCGG | 1.01 ± 0.019
CGGGGATAGG | 1.041 ± 0.0075
TGGGGGGAAT | 1.03 ± 0.1

Sequence | switch fluorescence ratio
TTACGAAGTT | 1 ± 0.019
GGGTTCAAAG | 0.9818 ± 0.006
CGTGAGAATG | 0.997 ± 0.026
CAGGGTAACT | 1.04 ± 0.066
GGGTTTTTGG | 0.997 ± 0.032
GGGTGCTTTG | 1.02 ± 0.029
AATGGGGATG | 0.998 ± 0.058
AACGTGTTGT | 1.02 ± 0.077
ATTCATTAGG | 1.02 ± 0.034
GGCGGTAAGA | 1 ± 0.051
CCTGCGTTTT | 1.75 ± 0.32
TCCAAAATGG | 1.09 ± 0.04
CGATGCTAGT | 1.07 ± 0.037
CGAAGGCTGT | 1.003 ± 0.0095
GGACACGTTG | 1.05 ± 0.083
CGGTTTCTGG | 0.9856 ± 0.0053
TAAAGATAGG | 1.026 ± 0.0036
CTTTATAGTT | 1.02 ± 0.034
GTGATAGTTA | 0.967 ± 0.043
TTGAGGTCGG | 1.005 ± 0.0066
ACGGGGGTGT | 0.984 ± 0.024
AATACAGAGG | 1.0069 ± 0.00059
AGTAGGGGTT | 0.979 ± 0.02

Sequence | switch fluorescence ratio
CTAGGGCGCC | 0.975 ± 0.012
GGGGTAGTGG | 0.981 ± 0.05
TGGGGGAAAA | 0.986 ± 0.01
TTGGTGAAGG | 1.01 ± 0.023
GGGTGGGATT | 0.986 ± 0.018
ATTGCGGCTA | 1.03 ± 0.033
TTTTTGGGGA | 1 ± 0.025
TGCTTCGTGC | 0.996 ± 0.012
TTGTGTAATT | 1.06 ± 0.05
AGAAAGCCGG | 0.989 ± 0.014
TAGAAGACAG | 0.996 ± 0.025
TATTTGGGGC | 1.01 ± 0.058
TGTTTTTAA | 1 ± 0.062
AATGTGTTGG | 0.984 ± 0.025
TTTAAAGAAT | 1.04 ± 0.079
TAGTTGTTCT | 0.962 ± 0.022
TGCCGCAGAG | 1.6 ± 0.16
TGCTGGTGTA | 1.02 ± 0.025
GGCGATGCGC | 1.03 ± 0.018
GTTGTGGCGT | 0.9853 ± 0.0069
GTATTTTATT | 1.006 ± 0.0064
TCGGGAGATT | 1.02 ± 0.029
GAGGGGCCTG | 1.01 ± 0.083

Sequence | switch fluorescence ratio
GGTATCGAGG | 1.01 ± 0.015
GGGAATGGGG | 0.992 ± 0.044
AAGGGGCAAT | 1.01 ± 0.055
CCAGTCATGA | 1.014 ± 0.0027
GGATGCTTGT | 1.009 ± 0.0092
GTGATGGGGG | 1.01 ± 0.051
TCGTTGCGT | 1.01 ± 0.0017
AAGGCTGTAC | 1.71 ± 0.1
AGAATAGGGT | 0.9901 ± 0.0072
CCATCATAGG | 1.0149 ± 0.00068
AATTGACGTA | 1.021 ± 0.0069
TGAGGGGGAC | 1.02 ± 0.087
GGGTATGGGA | 0.99 ± 0.017
AGGAGGAGTA | 0.968 ± 0.019
GTGGTGGGGC | 0.955 ± 0.03
GGTGCAAGCT | 1.019 ± 0.0023
TTGGTATAGT | 0.9999 ± 0.0047
TCATTCAAGG | 1.02 ± 0.013
AAGATAGCGG | 0.9978 ± 6.2e-05
GGATTGGGTT | 1.04 ± 0.069
AATTGATAGG | 0.982 ± 0.041
TTTGTCCAGT | 0.991 ± 0.041
TTTATCGCCG | 0.974 ± 0.022

Sequence | switch fluorescence ratio
AGGTAGGGGC | 1.02 ± 0.026
TAAAGAAATG | 0.99 ± 0.033
CCAGTGAGTC | 1.07 ± 0.041
GGGGGGCATA | 1.01 ± 0.012
GCGTTTTGCA | 0.978 ± 0.015
TAAATACGGG | 1.03 ± 0.016
CAGGTTATGG | 0.958 ± 0.042
TAACCCGATT | 0.997 ± 0.029
AGTGGTGGGG | 0.966 ± 0.014
CAGTCCGGGA | 1.101 ± 0.0079
CGCAGGGGGC | 1.14 ± 0.059
CTCTTGAGCC | 1.01 ± 0.044
GACCTATGGA | 0.997 ± 0.0037
AACATGGGGG | 1.01 ± 0.023
GGGTGCGGAG | 0.956 ± 0.035
CATACACATT | 1.06 ± 0.048
TGGTTTTCGG | 0.993 ± 0.041
CGGGGTTGGT | 1.01 ± 0.016
AAGTCTTTCG | 1.01 ± 0.012
GCCGCCGTAA | 1.3 ± 0.079
CAACCCATCT | 0.992 ± 0.042
TGACGAAACT | 1.35 ± 0.33
CTAGTTAGGG | 0.964 ± 0.02

Sequence | switch fluorescence ratio
TTTAACTTTG | 1.011 ± 0.0084
CGGGGGGGCA | 1 ± 0.038
ATGACGGGGT | 1.05 ± 0.085
AGGGTTTAAA | 1 ± 0.036
AAGAGTAAGC | 0.963 ± 0.013
ATTTGGCATC | 1.41 ± 0.47
GGGGGGTAAA | 1.04 ± 0.075
TTAGGGGGGT | 1.05 ± 0.15
GATTCTCCGT | 1.16 ± 0.016
GGGTTCAAGG | 0.995 ± 0.048
TTTGGGGCCC | 1.03 ± 0.041
GTTGTGGGTA | 0.975 ± 0.034
AGGTAGAGTA | 0.97 ± 0.034
ATAAGAAGTG | 1.05 ± 0.072
CGGTGCATGG | 0.991 ± 0.1
ATTTATAGGG | 0.982 ± 0.014
TACCTGGGTA | 0.948 ± 0.028
GGTTGGATTA | 0.9787 ± 0.00083
GATGTGTGCG | 0.897 ± 0.13
